Publication PMC3169402, “Structure of fructose bisphosphate aldolase from Encephalitozoon cuniculi” (Acta Crystallographica Section F: Structural Biology and …, 2011)

Biological target: the molecule itself
Experiment: crystal structure; sitting-drop vapour diffusion at 290 K, Bis-Tris propane pH 6.5, PEG 3350; phosphate-bound (2.00 Å) and FBP-bound (2.37 Å) forms, space group C222(1), data at 100 K

B1: Fructose bisphosphate aldolase from Encephalitozoon cuniculi (enzyme, UniProt Q8SSM8 1-338, looked up)
chain: MMDCDHLLRLGMTAKKILENGKGILAADETPKTLGRRFEKLGITNTEENRRKFREILFSTKGIERYIGGVILNQETFEQTSGSGVPLTELLKKKGIEIGIKLDKGLIDYKEKEKISVGLEDLDLRCKSSAFKDATFAKWRSLFYFYDGIPSEDCINENCSILAKYAIICQKNGLVPIVEPEVFLEGDYSMKRSYEVTRQILSTLMKYLNYELVYIPGVLIKASYVTSGQLSNEKYTPKKVATFTLRALLSTIPCGIPGIVFLSGGHGSEDAIGFLNAINMERGCRTWSLSFSFARALTDGVLETWRGDDSNIEEAQKILLETSFKACRGAEGKLWDQE
notes: Fructose bisphosphate aldolase (class I), Encephalitozoon cuniculi, UniProt Q8SSM8, full-length protein, residues 1 to 338; In PDB 3mbf Lys221 forms a Schiff base with fructose 1,6-bisphosphate; also called EcFBPA; FBPA; source: E. coli BL21(DE3)R3 Rosetta, purified (HisTrap IMAC, Superdex 75 SEC)
  stoichiometry N: 2
